Experimental data published in patent publication US12427163B2, “Anti-VTCN1 antibodies and antibody drug conjugates” (Bluefin BioMedicine, Inc., priority 2017, dated 2025).

Experiments:
KLN205 tumors = assay: KLN205 syngeneic mouse lung squamous tumor model in DBA2 mice; format: in vivo
Experimental: For the tumor study. 6-8 week-old female DBA2 mice were implanted subcutaneously in the right flank with 2.5×10^5 mouse lung squamous carcinoma KLN205 cells in 50% matrigel on day 0. Mice were treated with PBS as a vehicle control, a mouse IgG isotype control (10 mg/kg), or anti-VTCN1 6D9 antibody (10 mg/kg) on days 3, 6, 10, 13, 15, 17, 20, and 22 following tumor implantation by intraperitoneal (i.p.) injection. Tumors were measured using an electronic caliper twice a week and tumor volume was calculated using the formula 0.52*length*width*width. Mouse body weight was also measured and recorded.
6-8 week-old female DBA2 mice were implanted subcutaneously in the right flank with 2.5×10^5 mouse lung squamous carcinoma cell KLN205 cells in 50% matrigel on day 0. Tumors were measured on day 7 and mice are randomized to 7 treatment groups. The average size was 50 mm^3. The treatment groups were: PBS vehicle control, mIgG2a isotype control. 6D9, anti-mouse PD1 antibody RMP1-14, 6D9+RMP1-14, anti-mouse CTLA-4 antibody 9D9, and 6D9+9D9. The mice were treated on days 8, 11, 13, 15, 18, 20, 22, and 25. All antibodies were 10 mg/kg by i.p.
To test the activity of the 6D9 and 6D9-mIgG1 antibodies, 6-8 weeks old female DBA2 mice were implanted subcutaneously in the right flank with 0.2 million KLN205 cells in PBS on day 0. Mice were randomized on day 9 into 3 treatment groups, mIgG1 control. 6D9-mIgG1, 6D9-mIgG2a. Mice were treated on days 9, 11, 15, 18, and 22 by i.p. with 200 μg antibodies (10 mg/kg). […] However.

[1] = test system: cynomolgus monkey VTCN1 protein; assay: Affinity by OCTET, cynomolgus monkey VTCN1; format: binding; conditions: Table 12
Experimental: The affinity of antibodies to recombinant VTCN1 was determined on an OCTET™ Red (Pall, ForteBio) instrument. After loading reagents into a 96-well plate, the OCTET™ Red with Protein A-conjugated biosensors was programmed as follows: 30 seconds for baseline #1; 45 seconds to immobilize the antibody; 30 seconds for baseline #2; 300 seconds for association of antibody to recombinant VTCN1-his; and 300 seconds for dissociation of recombinant VTCN1-his from the antibody.

human VTCN1 protein = target: T1, human VTCN1 protein (Homo sapiens, UniProt Q7Z7D3); assay: Affinity to recombinant VTCN1-his by OCTET Red (Protein A biosensors); format: binding; conditions: Table 12
T1 construct: His
T1 sequence (Q7Z7D3 25-282): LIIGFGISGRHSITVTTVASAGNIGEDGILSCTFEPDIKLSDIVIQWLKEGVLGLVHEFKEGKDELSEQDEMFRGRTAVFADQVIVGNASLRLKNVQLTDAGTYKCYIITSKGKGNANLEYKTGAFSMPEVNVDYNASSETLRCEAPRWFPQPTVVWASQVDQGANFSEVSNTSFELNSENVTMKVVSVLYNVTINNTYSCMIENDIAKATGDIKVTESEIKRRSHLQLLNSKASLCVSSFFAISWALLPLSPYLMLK
Experimental: (§1) The affinity of antibodies to recombinant VTCN1 was determined on an OCTET™ Red (Pall, ForteBio) instrument. After loading reagents into a 96-well plate, the OCTET™ Red with Protein A-conjugated biosensors was programmed as follows: 30 seconds for baseline #1; 45 seconds to immobilize the antibody; 30 seconds for baseline #2; 300 seconds for association of antibody to recombinant VTCN1-his; and 300 seconds for dissociation of recombinant VTCN1-his from the antibody. Table 5 lists the affinity measured for selected antibodies.

[2] = target: T2, 293 cells expressing recombinant human VTCN1 (Homo sapiens, UniProt Q7Z7D3); assay: Cell-based competition binding FACS assay against 6D9; conditions: 6D9 10 μg/ml, human antibody 1 μg/ml
T2 construct: expressed in transfected cells; host or cells: 293 cells
T2 sequence (Q7Z7D3 25-282): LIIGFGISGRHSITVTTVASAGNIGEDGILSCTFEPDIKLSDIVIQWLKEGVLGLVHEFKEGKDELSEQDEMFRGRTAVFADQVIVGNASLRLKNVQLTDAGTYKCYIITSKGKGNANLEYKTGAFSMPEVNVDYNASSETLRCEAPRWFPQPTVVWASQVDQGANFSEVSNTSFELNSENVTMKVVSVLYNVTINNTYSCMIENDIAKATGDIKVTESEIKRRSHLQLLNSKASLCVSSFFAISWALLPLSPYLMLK
Experimental: To assess if these human VTCN1 antibodies bind to same or different regions of VTCN1 protein, a cell-based competition binding FACS assay was performed. […] The cells were then resuspend in FACS buffer with DAPI, and analyzed by flow cytometry.

mouse VTCN1 protein = target: T3, mouse VTCN1 protein (Mus musculus, UniProt Q7TSP5); assay: Affinity by OCTET, mouse VTCN1; format: binding; conditions: Table 12
T3 construct: His
T3 sequence (Q7TSP5 25-257): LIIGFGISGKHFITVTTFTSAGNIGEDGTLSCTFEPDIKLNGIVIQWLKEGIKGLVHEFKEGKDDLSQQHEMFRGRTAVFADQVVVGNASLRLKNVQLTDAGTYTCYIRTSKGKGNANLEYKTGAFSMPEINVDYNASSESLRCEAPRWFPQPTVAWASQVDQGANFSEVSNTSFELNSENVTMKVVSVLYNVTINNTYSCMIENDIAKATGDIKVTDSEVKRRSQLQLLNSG
Experimental: as §1

Molecule	mouse survival / time to tumor end point 1500 mm^3 (KLN205 tumors; Example 15)	KLN205 primary tumor growth, isotype comparison (KLN205 tumors; Example 15, 200 μg (10 mg/kg) i.p. from day 9)	cynomolgus monkey k(off) [1]	cynomolgus monkey k(on) [1]	Human K(off) (human VTCN1 protein)	Human k(on) (human VTCN1 protein)	competition with 6D9 for binding to VTCN1 [2]	mouse k(off) (mouse VTCN1 protein)	mouse k(on) (mouse VTCN1 protein)
6D9-mIgG1: 6D9 antibody converted from a mouse IgG2a to a mouse IgG1 (antibody, V domains shown) VH: QIQLQQSGPGLVQPSQSLSITCTVSGFSLTSYGVQWIRQSPGKGLEWLGVIWSSGSTDYNAAFLSRLSFSKDNSKSQVFFQMNSLQADDSAIYYCARDVTTIVEGFAHWGQGTLVTVSA VL: NIVMTQSPKSMSMSVGERVTLSCKASEKVGTYVSWYQQKPEQSPKLLIYGASNRYTGVPDRFTGSGSATDFTLTISSVQVEDLADYHCGQTYSYPFTFGSGTKLEIK	prolonged mouse survival	inhibit primary tumor growth							
4C7_63A1: fully human VTCN1 antibody; VH SEQ ID NO: 248, VL SEQ ID NO: 252 (antibody, V domains shown) VH: QVQLQESGPGLVKPSGTLSLTCAVSGGSISSSNWWSWVRQPPGKGLEAIGEIYHSGNTNYNPSLKSRVTISVDKSKNQFSLKLSSVTAADTAIYYCARDGYSSGWYWGYFDYWGQGTLVTVSS VL: EIVMTQSPATLSVSPGERATLSCRASQSVNSNLAWYQQKPGQAPWLLIYGASTRATGIPARFSGSGSGTEFTLTISSLQSEDFAVYYCQQYNHWPYTFGQGTKLEIK			5.80E−03	1.23E+05	5.81E−03	1.19E+05	compete with 6D9	4.01E−03	9.07E+04
16H12_60B4: fully human VTCN1 antibody; VH SEQ ID NO: 283, VL SEQ ID NO: 286 (antibody, V domains shown) VH: QVQVVQSGAEVKKPGSSVKVSCKASGDTFSNYAISWVRQAPGQGLEWMGGIIPIFGITNYAQKFQGRVTIIADKSTRTAYMELSSLRSEDTAVYYCSRGGPYFDYWGQGILVTVSS VL: EIVMTQSPATLSVSPGERATLSCRASQSVSSNLAWYQQKPGQAPRLLIYGASTRATGIPARFSGSGSGTEFTLTISSLQSEDFAVYYCQQYKKWPFTFGPGTKVDIK			2.40E−04	2.45E+05	1.95E−04	2.62E+05	do not compete with 6D9	3.76E−03	1.37E+05
14D6_60B5: fully human VTCN1 antibody; VH SEQ ID NO: 278, VL SEQ ID NO: 281 (antibody, V domains shown) VH: QVQLVHSGAEVKRPGSSVKVSCKASGGTFSSYAISWVRQAPGQGLEWMGGIIPIFGIANYAQKFQGRVTIIADKSTRTAYMELSSLRSEDTAVYYCARGGPYFDYWGQGILVTVSS VL: EIVMTQSPATLSVSPGERATLSCRASQSVSSNLAWYQQKPGQAPRLLIYGASTRATGIPARFSGSGSGTEFTLTISSLQSEDFAVYYCQQYNKWPFTFGPGTKVDIK			6.91E−04	1.32E+05	6.29E−04	1.32E+05	do not compete with 6D9	6.47E−03	1.15E+05
12B5_44B1: fully human VTCN1 antibody; VH SEQ ID NO: 264, VL SEQ ID NO: 268 (antibody, V domains shown) VH: QVQLVQSGAEVKKPGSSMKVSCKASGDTFSSYAISWVRQAPGQGLEWMAGIIPVFGTAHNAQKFQGRVTITADKSTSTAYMELSSLRSEDTAVYYCTRGGPYFDYWGQGTLVTVSS VL: EIVMTQSPATLSVSPGERAALSCRASQSVSSNLAWYQQKPGQAPRLLIYGVSTRATGIPDRFNGSGSGTEFTLTISSLQSEDFGAYYCQQYKKWPFIFGPGTKLEIK			3.74E−04	1.80E+05	3.54E−04	1.61E+05	do not compete with 6D9	8.11E−03	2.15E+05
